From US7799901B2, “Modulators of the function of FAS receptors and other proteins” (Yeda Research and Development Co. Ltd., priority 1995, dated 2010)
“Also recorded” adds a separate entry of the source.

B1: MACHβ1: MACH isoform, cDNA SEQ ID NO: 4, amino acid SEQ ID NO: 5; lacks the CED3/ICE homology region (protein)
chain: MDFSRNLYDIGEQLDSEDLASLKFLSLDYIPQRKQEPIKDALMLFQRLQEKRMLEESNLSFLKELLFRINRLDLLITYLNTRKEEMERELQTPGRAQISAYRVMLYQISEEVSRSELRSFKFLLQEEISKCKLDDDMNLLDIFIEMEKRVILGEGKLDILKRVCAQINKSLLKIINDYEEFSKERSSSLEGSPDEFSNDFGQSLPNEKQTSGILSDHQQSQFCKSTGESAQTSQH
B2: MACHα1 (C360S): MACHα1 mutant in which the catalytic cysteine Cys360 is replaced by Ser (protein)
chain: MDFSRNLYDIGEQLDSEDLASLKFLSLDYIPQRKQEPIKDALMLFQRLQEKRMLEESNLSFLKELLFRINRLDLLITYLNTRKEEMERELQTPGRAQISAYRVMLYQISEEVSRSELRSFKFLLQEEISKCKLDDDMNLLDIFIEMEKRVILGEGKLDILKRVCAQINKSLLKIINDYEEFSKERSSSLEGSPDEFSNGEELCGVMTISDSPREQDSESQTLDKVYQMKSKPRGYCLIINNHNFAKAREKVPKLHSIRDRNGTHLDAGALTTTFEELHFEIKPHDDCTVEQIYEILKIYQLMDHSNMDCFICCILSHGDKGIIYGTDGQEAPIYELTSQFTGLKCPSLAGKPKVFFIQASQGDNYQKGIPVETDSEEQPYLEMDLSSPQTRYIPDEADFLLGMATVNNCVSYRNPAEGTWYIQSLCQSLRERCPRGDDILTILTEVNYEVSNKDDKKNMGKQMPQPTFTLRKKLVFPSD

Columns and labels:
HeLa cells = assay: Cell death on overexpression of MACH isoforms in HeLa cells; format: cell-based; settings: FIG. 19
Experimental: In brief, 293-EBNA cells, MCF7 human breast carcinoma cells and HeLa HtTA-1 cells were grown in Dulbecco's modified Eagle's minimal essential medium supplemented with 10% fetal calf serum, nonessential amino acids, 100 U/ml penicillin and 100 μg/ml streptomycin. Cell tissue culture dishes (5×10^5 293-EBNA cells, 3×10^5 s MCF7 cells or 3×10^5 HeLa cells in 6-cm dishes) were transiently transfected, using the calcium phosphate precipitation method, with the cDNAs of the indicated proteins together with the β-galactosidase expression vector. In the experiments presented in FIGS. 14A-D and 15, each dish was transfected with 3.5 μg of the indicated MACH construct and 1.5 μg of pSV-β-gal. In the experiments presented in FIGS. 16A-D and 17-19, each dish was transfected with 2.5 μg of the indicated MACH or MORT1 construct (or, as control, empty vector) and 1.5 μg of pSV-β-gal. The cells were rinsed 6 to 10 h after transfection. The 293-EBNA and MCF7 cells were incubated for a further 18 h without additional treatment. The HeLa cells were incubated for 26 h after transfection and-then for 5 h in the presence of either anti-Fas.APO1 antibody (CH11, 0.5 μg/ml) or TNF (100 ng/ml), together with cycloheximide (10 μg/ml). The extent of cell death at the end of the incubation periods was assessed by determination of β-galactosidase expression, as described by Kumar et al, 1994.
To examine the involvement of the CED3/ICE homology region within the MACHα isoforms in their apoptopic effects, cells were transfected with the expression vector for the MACHβ1 isoform, which lacks the CED3/ICE homology region, as well as with expression vectors for MACHα3, which lacks an N-terminal part of the region, and with expression vectors for MACHα1 (C360S) and for a C-terminally truncated mutant of MACHα1 (MACHα1 (1-415)), which lacks one of the residues believed to be critical for CED3/ICE protease function (corresponding to Ser347 in ICE). […]

MORT1 = biological target: T1, MORT1 (Homo sapiens, UniProt Q13158); assay: Co-immunoprecipitation with MORT-1 from 293-EBNA cell lysates; format: binding; set-up: expressed in transfected cells; host or cells: 293-EBNA; HeLa (detail in the same paragraph); settings: lysates of human embryonic kidney 293-EBNA cells
T1 sequence (Q13158 1-208): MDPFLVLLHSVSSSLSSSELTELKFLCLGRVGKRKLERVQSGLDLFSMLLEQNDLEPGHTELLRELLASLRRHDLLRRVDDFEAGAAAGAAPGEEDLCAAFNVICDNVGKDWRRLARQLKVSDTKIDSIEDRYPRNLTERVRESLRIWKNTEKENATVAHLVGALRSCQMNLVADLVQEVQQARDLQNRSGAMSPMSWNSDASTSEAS
Experimental: Testing further if MACHα1 can bind to MORT1 also within mammalian cells, MACHα1 or MACHβ1, fused with the FLAG octapeptide was expressed, together with HA epitope-tagged MORT1 molecules. ^35[S] metabolically labeled MACHα1 and MACHβ1 fused at their N-termini to the FLAG octapeptide (FLAG-MACHα1 and β1), and MORT1 fused at its N terminus to the HA epitope (Field et al, 1988) were expressed in HeLa cells. Immunoprecipitation of the proteins from lysates of the cells was performed using mouse monoclonal antibodies against the FLAG octapeptide (M2; Eastman Kodak), HA epitope (12CA5, Field et al, 1988) or the p75 TNF receptor (#9, Bigda et al, 1994) as a control. The proteins were analyzed by SDS-polyacrylamide gel electrophoresis (12% acrylamide), followed by autoradiography. […] The effectivity of interaction of MACHα1 with MORT1 appeared to be lower than that of MACHβ1.

Molecule	cytotoxicity in transfected HeLa cells (HeLa cells)	coimmunoprecipitation with MORT-1 (MORT1)
B1	more pronounced; also recorded: rather significant cytoxic effect	coimmunoprecipitated
B2	somewhat cytotoxic	coimmunoprecipitated
